Measured values reported in patent US20030108554A1 (published 2003).

B1: GIP130a (other)
chain: MRSRGSDTEGSAQKKFPRHTKGHSFQGPKNMKHRQQDKDSPSESDVILPCPKAEKPHSGNGHQAEDLSRDDLLFLLSILEGELQARDEVIGILKAEKMDLALLEAQYGFVTPKKVLEALQRDAFQAKSTPWQEDIYEKPMNELDKVVEKHKESYRRILGQLLVAEKSRRQTILELEEEKRKHKEYMEKSDEFICLLEQECERLKKLIDQEIKSQEEKEQEKEKRVTTLKEELTKLKSFALMVVDEQQRLTAQLTLQRQKIQELTTNAKETHTKLALAEARVQEEEQKATRLEKELQTQTTKFHQDQDTIMAKLTNEDSQNRQLQQKLAALSRQIDELEETNRSLRKAEEELQDIKEKISKGEYGNAGIMAEVEELRKRVLDMEGKDEELIKMEEQCRDLNKRLERETLQSKDFKLEVEKLSKRIMALEKLEDAFNKSKQECYSLKCNLEKERMTTKQLSQELESLKVRIKELEAIESRLEKTEFTLKEDLTKLKTLTVMFVDERKTMSEKLKKTEDKLQAASSQLQVEQNKVTTVTEKLIEETKRALKSKTDVEEKMYSVTKERDDLKNKLKAEEEKGNDLLSRVNMLKNRLQSLEAIEKDFLKNKLNQDSGKSTTALHQENNKIKELSQEVERLKLKLKDMKAIEDDLMKTEDEYETLERRYANERDKAQFLSKELEHVKMELAKYKLAEKTETSHEQWLFKRLQEEEAKSGHLSREVDALKEKIHEYMATEDLICHLQGDHSVLQKKLNQQENRNRDLGREIENLTKELERYRHFSKSLRPSLNGRRISDPQVFSKEVQTEAVDNEPPDYKSLIPLERAVINGQLYEESENQDEDPNDEGSVLSFKCSQSTPCPVNRKLWIPWMKSKEGHLQNGKMQTKPNANFVQPGDLVLSHTPGQPLHIKVTPDHVQNTATLEITSPTTESPHSYTSTAVIPNCGTPKQRITILQNASITPVKSKTSTEDLMNLEQGMSPITMATFARAQTPESCGSLTPERTMSPIQVLAVTGSASSPEQGRSPEPTEISAKHAIFRVSPDRQSSWQFQRSNSNSSSVITTEDNKIHIHLGSPYMQAVASPVRPASPSAPLQDNRTQGLINGALNKTTNKVTSSITITPTATPLPRQSQITVEPLLLPH
notes: Full length; tested as GAL4 domain fusion in yeast two-hybrid
B3: GIP130c (other)
chain: MRSRGSDTEGSAQKKFPRHTKGHSFQGPKNMKHRQQDKDSPSESDVILPCPKAEKPHSGNGHQAEDLSRDDLLFLLSILEGELQARDEVIGILKAEKMDLALLEAQYGFVTPKKVLEALQRDAFQAKSTPWQEDIYEKPMNELDKVVEKHKESYRRILGQLLVAEKSRRQTILELEEEKRKHKEYMEKSDEFICLLEQECERLKKLIDQEIKSQEEKEQEKEKRVTTLKEELTKLKSFALMVVDEQQRLTAQLTLQRQKIQELTTNAKETHTKLALAEARVQEEEQKATRLEKELQTQTTKFHQDQDTIMAKLTNEDSQNRQLQQKLAALSRQIDELEETNRSLRKAEEELQDIKEKISKGEYGNAGIMAEVEELRKRVLDMEGKDEELIKMEEQCRDLNKRLERETLQSKDFKLEVEKLSKRIMALEKLEDAFNKSKQECYSLKCNLEKERMTTKQLSQELESLKVRIKELEAIESRLEKTEFTLKEDLTKLKTLTVMFVDERKTMSEKLKKTEDKLQAASSQLQVEQNKVTTVTEKLIEETKRALKSKTDVEEKMYSVTKERDDLKNKLKAEEEKGNDLLSRVNMLKNRLQSLEAIEKDFLKNKLNQDSGKSTTALHQENNKIKELSQEVERLKLKLKDMKAIEDDLMKTEDEYETLERRYANERDKAQFLSKELEHVKMELAKYKLAEKTETSHEQWLFKRLQEEEAKSGHLSREVDALKEKIHEYMATEDLICHLQGDHSVLQKKLNQQENRNRDLGREIENLTKELERYRHFSKSLRPSLNGRRISDPQVFSKEVQTEAVDNEPPDYKSLIPLERAVINGQLYEESENQDEDPNDEGSVLSFKCSQSTPCPVNRKLWIPWMKSKEGHLQNGKMQTKPNANFVQPGDLVLSHTPGQPLHIKVTPDHVQNTATLEITSPTTESPHSYTSTAVIPNCGTPKQRITILQNASITPVKSKTSTEDLMNLEQGMSPITMATFARAQTPESCGSLTPERTMSPIQVLAVTGSASSPEQGRSPEPTEISAKHAIFRVSPDRQSSWQFQRSNSNSSSVITTEDNKIHIHLGSPYMQAVASPVRPASPSAPLQDNRTQGLINGALNKTTNKVTSSITITPTATPLPRQSQITVSNIYN
notes: as for B1

Tests used:
Test in all cases: yeast two-hybrid
yeast two-hybrid = biological target: the molecule itself
GIP130a = biological target: B1
GIP130c = biological target: B3

B1: binds (yeast two-hybrid).

B2: GIP130b (other)
chain: MRSRGSDTEGSAQKKFPRHTKGHSFQGPKNMKHRQQDKDSPSESDVILPCPKAEKPHSGNGHQAEDLSRDDLLFLLSILEGELQARDEVIGILKAEKMDLALLEAQYGFVTPKKVLEALQRDAFQAKSTPWQEDIYEKPMNELDKVVEKHKESYRRILGQLLVAEKSHRQTILELEEEKRKHKEYMEKSDEFICLLEQECERLKKLIDQEIKSQEEKEQEKEKRVTTLKEELTKLKSFALMVVDEQQRLTAQLTLQRQKIQELTTNAKETHTKLALAEARVQEEEQKATRLEKELQTQTTKFHQDQDTIMAKLTNEDSQNRQLQQKLAALSRQIDELEETNRSLRKAEEELQDIKEKISKGEYGNAGIMAEVEELRKRVLDMEGKDEELIKMEEQCRDLNKRLERETLQSKDFKLEVEKLSKRIMALEKLEDAFNKSKQECYSLKCNLEKERMTTKQLSQELESLKVRIKELEAIESRLEKTEFTLKEDLTKLKTLTVMFVDERKTMSEKLKKTEDKLQAASSQLQVEQNKVTTVTEKLIEETKRALKSKTDVEEKMYSVTKERDDLKNKLKAEEEKGNDLLSRVNMLKNRLQSLEAIEKDFLKNKLNQDSGKSTTALHQENNKIKELSQEVERLKLKLKDMKAIEDDLMKTEDEYETLERRYANERDKAQFLSKELEHVKMELAKYKLAEKTETSHEQWLFKRLQEEEAKSGHLSREVDALKEKIHEYMATEDLICHLQGDHSVLQKKLNQQENRNRDLGREIENLTKELERYRHFSKSLRPSLNGRRISDPQVFSKEVQTEAVDNEPPDYKSLIPLERAVINGQLYEESENQDEDPNDEGSVLSFKCSQSTPCPVNRKLWIPWMKSKEGHLQNGKMQTKPNANFVQPGDLVLSHTPGQPLHIKVTPDHVQNTATLEITSPTTESPHSYTSTAVIPNCGTPKQRITILQNASITPVKSKTSTEDLMNLEQGMSPITMATFARAQTPESCGSLTPERTMSPIQVLAVTGSASSPEQGRSPEPTEISAKHAIFRVSPDRQSSWQFQRSNSNSSSVITTEDNKIHIHLGSPYMQAVASPVRPASPSAPLQDNRTQGLINGALNKTTNKVTSSITITPTATPLPRQSQITVSNIYN
notes: as for B1
B2: binds (yeast two-hybrid); binds (GIP130a); binds (GIP130c).

B3: binds (yeast two-hybrid); binds (GIP130a).
